From US20120130079A1

How the values were obtained:
[1] = biological target: purified His-tagged Stat3 (murine Stat3, recombinant, expressed in BL21(DE3)) (murine) (UniProt P42227); experiment: SPR (SensiQ), peptide as analyte over His-Stat3 immobilised on HisCap/Ni-NTA sensor chip
[2] = biological target: purified His-tagged Stat3 (murine Stat3, recombinant, expressed in BL21(DE3)) (murine) (UniProt P42227); experiment: fluorescence polarization competition; competitor/probe 5-carboxyfluorescein-GpYLPQTV-NH2 (10 nM), His-Stat3 150 nM

purified His-tagged Stat3 (murine Stat3, recombinant, expressed in BL21(DE3)) (murine), sequence (P42227 whole entry): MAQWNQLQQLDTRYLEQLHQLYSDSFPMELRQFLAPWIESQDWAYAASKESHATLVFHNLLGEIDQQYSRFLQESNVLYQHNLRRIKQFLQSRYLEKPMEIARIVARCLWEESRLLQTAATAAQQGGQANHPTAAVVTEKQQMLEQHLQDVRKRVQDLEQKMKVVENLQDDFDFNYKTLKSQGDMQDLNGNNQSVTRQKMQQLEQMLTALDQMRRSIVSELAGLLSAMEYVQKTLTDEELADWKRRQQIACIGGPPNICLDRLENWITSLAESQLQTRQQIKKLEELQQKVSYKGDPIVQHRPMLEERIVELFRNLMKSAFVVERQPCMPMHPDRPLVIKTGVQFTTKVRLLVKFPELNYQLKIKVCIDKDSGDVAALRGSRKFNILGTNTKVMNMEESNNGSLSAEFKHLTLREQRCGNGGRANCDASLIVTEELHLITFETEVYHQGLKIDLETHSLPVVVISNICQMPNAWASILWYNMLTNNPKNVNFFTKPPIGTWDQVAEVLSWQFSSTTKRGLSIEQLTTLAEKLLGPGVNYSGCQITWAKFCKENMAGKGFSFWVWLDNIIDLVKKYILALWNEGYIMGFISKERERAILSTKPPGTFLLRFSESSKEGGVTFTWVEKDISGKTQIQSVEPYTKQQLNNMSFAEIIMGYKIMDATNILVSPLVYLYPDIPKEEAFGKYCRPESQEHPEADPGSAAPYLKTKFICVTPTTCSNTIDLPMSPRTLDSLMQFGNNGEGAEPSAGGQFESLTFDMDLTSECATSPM

## GpYLPQTV-NH2, high affinity Stat3-binding phosphoTyr peptide derived from the interleukin-6 receptor subunit gp-130
[1]
  Kd: 24 nM
[2]
  IC50: 300 nM
